The values that follow come from the Human Domainome abundance scans (Beltran et al. 2025).

± gives the uncertainty stated by the source.

A short description of the data set: abundance fitness (aPCA) (normalised: wild type 0, dead -1); higher = more abundant; growth selection in yeast, the domain comes from the species named. The following applies: Saccharomyces cerevisiae (strain ATCC 204508 / S288c).
In turn, “E3 ubiquitin-protein ligase RSP5 G324F, P39940” came in with an abundance fitness of -0.48 ± 0.45.
In turn, “E3 ubiquitin-protein ligase RSP5 G324K, P39940” gave an abundance fitness of 0.284 ± 0.14.
Regarding “E3 ubiquitin-protein ligase RSP5 G324L, P39940”, the abundance fitness was -0.328 ± 0.13.
Substance “E3 ubiquitin-protein ligase RSP5 G324M, P39940” showed an abundance fitness of 0.105 ± 0.12.
With “E3 ubiquitin-protein ligase RSP5 G324N, P39940” the figure was 0.182 ± 0.12.
With “E3 ubiquitin-protein ligase RSP5 G324P, P39940” the figure was -0.178 ± 0.1.
Turning to “E3 ubiquitin-protein ligase RSP5 G324R, P39940”, the abundance fitness was -0.099 ± 0.066.
Regarding “E3 ubiquitin-protein ligase RSP5 G324S, P39940”, the abundance fitness worked out at 0.097 ± 0.092.
“E3 ubiquitin-protein ligase RSP5 G324T, P39940” showed an abundance fitness of -0.04 ± 0.11.
For “E3 ubiquitin-protein ligase RSP5 G324V, P39940”, the abundance fitness was determined as 0.005 ± 0.11.
Turning to “E3 ubiquitin-protein ligase RSP5 G324W, P39940”, the abundance fitness was -0.344 ± 0.086.
With “E3 ubiquitin-protein ligase RSP5 G325A, P39940” the figure was -0.046 ± 0.051; with “E3 ubiquitin-protein ligase RSP5 G325C, P39940”, -0.008 ± 0.071; with “E3 ubiquitin-protein ligase RSP5 G325D, P39940”, 0.051 ± 0.051.
With “E3 ubiquitin-protein ligase RSP5 G325E, P39940” the figure was -0.031 ± 0.067; with “E3 ubiquitin-protein ligase RSP5 G325F, P39940”, -0.132 ± 0.065.
In turn, “E3 ubiquitin-protein ligase RSP5 G325H, P39940” had an abundance fitness of -0.035 ± 0.099.
With “E3 ubiquitin-protein ligase RSP5 G325I, P39940” the figure was 0.018 ± 0.092.
With “E3 ubiquitin-protein ligase RSP5 G325L, P39940” the figure was 0.029 ± 0.11; with “E3 ubiquitin-protein ligase RSP5 G325M, P39940”, 0.137 ± 0.095.
With “E3 ubiquitin-protein ligase RSP5 G325P, P39940” the figure was -0.252 ± 0.072; with “E3 ubiquitin-protein ligase RSP5 G325Q, P39940”, -0.151 ± 0.1.
Consider “E3 ubiquitin-protein ligase RSP5 G325R, P39940”, for which the abundance fitness was -0.063 ± 0.047.
Then “E3 ubiquitin-protein ligase RSP5 G325S, P39940”, with 0.069 ± 0.094; and “E3 ubiquitin-protein ligase RSP5 G325T, P39940”, with 0.071 ± 0.097; and “E3 ubiquitin-protein ligase RSP5 G325V, P39940”, with -0.021 ± 0.045.
In turn, “E3 ubiquitin-protein ligase RSP5 G325W, P39940” displayed an abundance fitness of -0.141 ± 0.099.
“E3 ubiquitin-protein ligase RSP5 G325Y, P39940” displayed an abundance fitness of -0.057 ± 0.083.
Turning to “E3 ubiquitin-protein ligase RSP5 G329A, P39940”, the abundance fitness amounted to 0.037 ± 0.044.
With “E3 ubiquitin-protein ligase RSP5 G329C, P39940” the figure was 0.077 ± 0.082; with “E3 ubiquitin-protein ligase RSP5 G329D, P39940”, 0.149 ± 0.066.
Then “E3 ubiquitin-protein ligase RSP5 G329E, P39940”, with 0.096 ± 0.055.
Then “E3 ubiquitin-protein ligase RSP5 G329F, P39940”, with -0.026 ± 0.091.
With “E3 ubiquitin-protein ligase RSP5 G329H, P39940”, the abundance fitness was -0.046 ± 0.083.
“E3 ubiquitin-protein ligase RSP5 G329L, P39940” came in with an abundance fitness of -0.129 ± 0.047.
With “E3 ubiquitin-protein ligase RSP5 G329M, P39940” the figure was 0.061 ± 0.098; with “E3 ubiquitin-protein ligase RSP5 G329N, P39940”, 0.1 ± 0.069.
“E3 ubiquitin-protein ligase RSP5 G329P, P39940” had an abundance fitness of -0.113 ± 0.052.
With “E3 ubiquitin-protein ligase RSP5 G329Q, P39940” the figure was 0.18 ± 0.096.
Turning to “E3 ubiquitin-protein ligase RSP5 G329R, P39940”, the abundance fitness was -0.021 ± 0.043.
With “E3 ubiquitin-protein ligase RSP5 G329S, P39940” the figure was 0.103 ± 0.054; with “E3 ubiquitin-protein ligase RSP5 G329T, P39940”, 0.063 ± 0.071.
For the substance “E3 ubiquitin-protein ligase RSP5 G329V, P39940”, the abundance fitness was -0.006 ± 0.042.
Then “E3 ubiquitin-protein ligase RSP5 G329W, P39940”, with -0.139 ± 0.058.
Then “E3 ubiquitin-protein ligase RSP5 G329Y, P39940”, with -0.337 ± 0.39; and “E3 ubiquitin-protein ligase RSP5 G331A, P39940”, with -0.034 ± 0.042; and “E3 ubiquitin-protein ligase RSP5 G331C, P39940”, with -0.095 ± 0.09.
Take “E3 ubiquitin-protein ligase RSP5 G331D, P39940”: the abundance fitness is 0.059 ± 0.087.
Then “E3 ubiquitin-protein ligase RSP5 G331E, P39940”, with -0.127 ± 0.049; and “E3 ubiquitin-protein ligase RSP5 G331F, P39940”, with -0.126 ± 0.084; and “E3 ubiquitin-protein ligase RSP5 G331H, P39940”, with -0.009 ± 0.15.
With “E3 ubiquitin-protein ligase RSP5 G331I, P39940” the figure was -0.071 ± 0.068; with “E3 ubiquitin-protein ligase RSP5 G331K, P39940”, -0.121 ± 0.046; with “E3 ubiquitin-protein ligase RSP5 G331L, P39940”, -0.095 ± 0.046.
Then “E3 ubiquitin-protein ligase RSP5 G331M, P39940”, with -0.02 ± 0.055; and “E3 ubiquitin-protein ligase RSP5 G331N, P39940”, with -0.01 ± 0.1.
For “E3 ubiquitin-protein ligase RSP5 G331P, P39940”, the abundance fitness is -0.249 ± 0.07.
“E3 ubiquitin-protein ligase RSP5 G331R, P39940” had an abundance fitness of -0.17 ± 0.041.
Then “E3 ubiquitin-protein ligase RSP5 G331S, P39940”, with -0.186 ± 0.046; and “E3 ubiquitin-protein ligase RSP5 G331T, P39940”, with -0.09 ± 0.046.
Then “E3 ubiquitin-protein ligase RSP5 G331V, P39940”, with -0.083 ± 0.047; and “E3 ubiquitin-protein ligase RSP5 G331W, P39940”, with -0.329 ± 0.049; and “E3 ubiquitin-protein ligase RSP5 G331Y, P39940”, with -0.202 ± 0.17.
With “E3 ubiquitin-protein ligase RSP5 G336A, P39940” the figure was -0.447 ± 0.05.
“E3 ubiquitin-protein ligase RSP5 G336C, P39940” had an abundance fitness of -0.427 ± 0.063.
“E3 ubiquitin-protein ligase RSP5 G336D, P39940” returned an abundance fitness of -0.368 ± 0.07.
With “E3 ubiquitin-protein ligase RSP5 G336E, P39940” the figure was -0.562 ± 0.059; with “E3 ubiquitin-protein ligase RSP5 G336F, P39940”, -0.544 ± 0.067.
“E3 ubiquitin-protein ligase RSP5 G336H, P39940” showed an abundance fitness of -0.157 ± 0.2.
With “E3 ubiquitin-protein ligase RSP5 G336I, P39940” the figure was -1.3 ± 0.13; with “E3 ubiquitin-protein ligase RSP5 G336K, P39940”, -0.302 ± 0.062.
Then “E3 ubiquitin-protein ligase RSP5 G336L, P39940”, with -0.575 ± 0.062; and “E3 ubiquitin-protein ligase RSP5 G336M, P39940”, with -0.531 ± 0.1.
Then “E3 ubiquitin-protein ligase RSP5 G336P, P39940”, with -0.755 ± 0.057.
On to “E3 ubiquitin-protein ligase RSP5 G336Q, P39940”, for which the abundance fitness was -0.271 ± 0.079.
Substance “E3 ubiquitin-protein ligase RSP5 G336S, P39940” showed an abundance fitness of -0.471 ± 0.061.
Then “E3 ubiquitin-protein ligase RSP5 G336T, P39940”, with -0.461 ± 0.072; and “E3 ubiquitin-protein ligase RSP5 G336V, P39940”, with -1.11 ± 0.061.
“E3 ubiquitin-protein ligase RSP5 G336W, P39940” registered an abundance fitness of -0.558 ± 0.054.
Then “E3 ubiquitin-protein ligase RSP5 G336Y, P39940”, with -0.815 ± 0.19.
As to “E3 ubiquitin-protein ligase RSP5 G345C, P39940”, the abundance fitness is -0.364 ± 0.06.
With “E3 ubiquitin-protein ligase RSP5 G345D, P39940” the figure was -0.271 ± 0.26; with “E3 ubiquitin-protein ligase RSP5 G345E, P39940”, -0.312 ± 0.057; with “E3 ubiquitin-protein ligase RSP5 G345K, P39940”, 0.148 ± 0.11.
Then “E3 ubiquitin-protein ligase RSP5 G345L, P39940”, with -0.303 ± 0.062; and “E3 ubiquitin-protein ligase RSP5 G345M, P39940”, with -0.14 ± 0.074.
With “E3 ubiquitin-protein ligase RSP5 G345P, P39940” the figure was -0.717 ± 0.084; with “E3 ubiquitin-protein ligase RSP5 G345Q, P39940”, -0.202 ± 0.08.
The substance “E3 ubiquitin-protein ligase RSP5 G345R, P39940” showed an abundance fitness of -0.219 ± 0.047.
For “E3 ubiquitin-protein ligase RSP5 G345T, P39940”, the abundance fitness is -0.665 ± 0.069.
Then “E3 ubiquitin-protein ligase RSP5 G345W, P39940”, with -0.466 ± 0.049.
